# Experimental data taken from publication PMC5671938, “Multimerin-2 is a ligand for group 14 family C-type lectins CLEC14A, CD93 and CD248 spanning the endothelial pericyte interface” (Oncogene, 2017).
# B1: MMRN2^495-674 expressed and purified from E. coli (blocking experiments) (domain or fragment, human, UniProt Q9H8L6 495-674, looked up)
# chain: QKLYLDLDVIREGQRDATRALEETQVSLDERRQLDGSSLQALQNAVDAVSLAVDAHKAEGERARAATSRLRSQVQALDDEVGALKAAAAEARHEVRQLHSAFAALLEDALRHEAVLAALFGEEVLEEMSEQTPGPLPLSYEQIRVALQDAASGLQEQALGWDELAARVTALEQASEPPRP
# notes: codon optimized synthetic DNA in pET23a between NdeI and NotI; The fragment was made 'with His tag or avitag'; also called MMRN2 peptide; source: E. coli BL21-DE3 pLysS, purified (Nickel-NTA, size exclusion chromatography), endotoxin removed
# Target: T1, recombinant CLEC14A extracellular domain with an Fc tag (CLEC14A-ECD-Fc) (human, UniProt Q86T13 22-397)
# T1 construct: CLEC14A, human, extracellular domain; Human IgG Fc alone served as the control for the Fc tag; also called hCLEC14A-ECD-Fc; CLEC14A-Fc
# T1 sequence (looked up): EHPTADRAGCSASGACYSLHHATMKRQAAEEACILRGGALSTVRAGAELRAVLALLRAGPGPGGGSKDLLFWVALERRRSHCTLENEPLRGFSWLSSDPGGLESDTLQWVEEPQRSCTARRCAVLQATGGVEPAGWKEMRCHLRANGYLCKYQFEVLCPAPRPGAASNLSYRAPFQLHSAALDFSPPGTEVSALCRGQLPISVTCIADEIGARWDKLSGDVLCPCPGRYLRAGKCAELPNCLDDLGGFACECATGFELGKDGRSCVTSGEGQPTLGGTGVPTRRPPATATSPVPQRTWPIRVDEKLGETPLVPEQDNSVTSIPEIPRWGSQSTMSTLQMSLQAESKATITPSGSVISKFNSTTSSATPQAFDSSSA
# Experiment: flow cytometry on cells; blocking: hCLEC14A-ECD-Fc incubated with 2 x molar excess of MMRN2^495-674 or MMRN2^495-603 for 1 h at 4 °C, then used to stain the HUVEC surface; anti-hFc-FITC
# Settings: both partners purified
binder,measurement,value
B1,binding result,binds
